Source: US20170368168A1 (AGENUS, published 2017)
Substitutions are numbered along the chain they refer to. Names and notes keep the numbering of the source.

B1: AM-2 (IgG1 N297A) (antibody, V domains shown)
VH: EVQLVESGGGLVQPGGSLRLSCAASGFTFRQNAWSWVRRAPGKGLEWVSAISGSGGSTYYADSVKGRFTISRDNSKNTLYLQMNSLRAEDTAVYYCAKGGDYGGNYFDYWGQGTLVTVSS
VL: EIVLTQSPATLSLSPGERATLSCRASQSVSSYLAWYQQKPGQAPRLLIYDASNRATGIPASFSGSGSGTDFTLTISRLEPEDFAVYYCQQYGSSPLTFGGGTKVEIKR
B2: AM-6 (IgG1 N297A) (antibody, V domains shown)
VH: B1 VH with R30A, Q31R
VL: B1 VL
B3: pab2188w (IgG1 N297A) (antibody, V domains shown)
VH: not shown
VL: B1 VL
B4: pab2174 (IgG1) (antibody, V domains shown)
VH: not shown
VL: EIVLTQSPATLSLSPGERATLSCRASQSVSSYLAWYQQKPGQAPRLLIYDASNRATGIPARFSGSGSGTDFTLTISRLEPEDFAVYYCQQYGSSPLTFGGGTKVEIK
B5: pab2173 (IgG1) (antibody, V domains shown)
VH: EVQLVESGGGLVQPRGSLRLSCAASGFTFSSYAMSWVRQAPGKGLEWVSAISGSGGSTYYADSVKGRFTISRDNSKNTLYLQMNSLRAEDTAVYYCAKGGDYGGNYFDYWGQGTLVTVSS
VL: B4 VL
B6: pab2176 (IgG1) (antibody, V domains shown)
VH: not shown
VL: B4 VL with A9G
B7: pab2177 (IgG1) (antibody, V domains shown)
VH: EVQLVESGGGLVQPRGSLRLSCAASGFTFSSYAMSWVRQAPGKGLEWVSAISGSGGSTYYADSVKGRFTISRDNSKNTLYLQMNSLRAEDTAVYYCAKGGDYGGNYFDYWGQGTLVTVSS
VL: B4 VL with A9G
B8: pab2178 (IgG1) (antibody, V domains shown)
VH: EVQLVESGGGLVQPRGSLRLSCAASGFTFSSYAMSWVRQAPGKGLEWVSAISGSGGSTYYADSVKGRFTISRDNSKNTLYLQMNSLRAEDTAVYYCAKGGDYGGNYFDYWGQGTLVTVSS
VL: B4 VL with R61S
B9: pab2179 (IgG1) (antibody, V domains shown)
VH: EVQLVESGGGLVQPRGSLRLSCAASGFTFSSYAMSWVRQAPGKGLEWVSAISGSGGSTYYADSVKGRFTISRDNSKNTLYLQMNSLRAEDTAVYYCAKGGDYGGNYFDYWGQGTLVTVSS
VL: B4 VL with A9G, N53S, A60D
B10: pab2180 (IgG1) (antibody, V domains shown)
VH: not shown
VL: B4 VL with A9G, N53S, A60D
B11: pab2182 (IgG1) (antibody, V domains shown)
VH: not shown
VL: B4 VL with A9G, D50G, N53S, L96I
B12: pab2184 (IgG1) (antibody, V domains shown)
VH: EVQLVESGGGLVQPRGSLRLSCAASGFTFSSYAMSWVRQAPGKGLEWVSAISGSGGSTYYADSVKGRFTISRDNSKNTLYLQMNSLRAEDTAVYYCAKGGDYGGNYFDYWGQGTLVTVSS
VL: B4 VL with A9G, D50G, N53S, L96I
B13: pab2186 (IgG1) (antibody, V domains shown)
VH: not shown
VL: B4 VL with R77S
B14: pab2189 (IgG1) (antibody, V domains shown)
VH: not shown
VL: B4 VL
B15: pab2192 (IgG1) (antibody, V domains shown)
VH: not shown
VL: B4 VL with A9G, D50G, N53S, L96I
B16: pab2191 (IgG1) (antibody, V domains shown)
VH: not shown
VL: B4 VL with A9G
B17: pab2175 (IgG1) (antibody, V domains shown)
VH: not shown
VL: B4 VL with R61S
B18: pab2183 (IgG1) (antibody, V domains shown)
VH: not shown
VL: B4 VL with D50G, N53T
B19: pab2188 (IgG1) (antibody, V domains shown)
VH: not shown
VL: B4 VL with R61S
B20: pab2190 (IgG1) (antibody, V domains shown)
VH: not shown
VL: B4 VL with A9G, N53S, A60D
B21: AM-3 (IgG1 N297A) (antibody, V domains shown)
VH: B1 VH with R30M, Q31S, N32G, A33Q, W34T
VL: B1 VL
B22: pab2184 (IgG1 variant) (antibody, V domains shown)
VH: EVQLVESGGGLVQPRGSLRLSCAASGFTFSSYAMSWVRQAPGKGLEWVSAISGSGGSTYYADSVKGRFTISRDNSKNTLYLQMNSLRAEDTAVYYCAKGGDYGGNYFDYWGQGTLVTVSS
VL: B4 VL with A9G, D50G, N53S, L96I
B23: pab2186 (IgG1 variant) (antibody, V domains shown)
VH: not shown
VL: B4 VL with R77S
B24: pab2189 (IgG1 variant) (antibody, V domains shown)
VH: not shown
VL: B4 VL
B25: pab2190 (IgG1 variant) (antibody, V domains shown)
VH: not shown
VL: B4 VL with A9G, N53S, A60D
B26: pab2192 (IgG1 variant) (antibody, V domains shown)
VH: not shown
VL: B4 VL with A9G, D50G, N53S, L96I
B27: pab2191 (IgG1 variant) (antibody, V domains shown)
VH: not shown
VL: B4 VL with A9G

Target: T1, recombinant mouse TIM-3 Fc (R&D Systems, #1529-TM) (mouse, UniProt Q8VIM0 20-191)
T1 construct: also called rmTIM-3 Fc; not shown: Fc part
T1 sequence (looked up): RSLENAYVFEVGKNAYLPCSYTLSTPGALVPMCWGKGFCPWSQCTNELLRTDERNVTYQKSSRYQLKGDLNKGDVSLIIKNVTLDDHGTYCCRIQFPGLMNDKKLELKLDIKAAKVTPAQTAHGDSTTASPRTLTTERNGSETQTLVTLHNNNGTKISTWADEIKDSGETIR
Experiment: Luminex suspension array, antigen coupled to beads

Does B1 bind?
Result: no binding (tested: 10000 ng/ml to 0.1 ng/ml)

Does B2 bind?
Result: no binding (tested: 10000 ng/ml to 0.1 ng/ml)

Does B3 bind?
Result: no binding (tested: 10000 ng/ml to 0.1 ng/ml)

Target: T2, recombinant human TIM-1 His (R&D Systems, Cat#1750-TM) (human, UniProt Q96D42 21-295)
T2 construct: also called rhTIM-1 His
T2 sequence (looked up): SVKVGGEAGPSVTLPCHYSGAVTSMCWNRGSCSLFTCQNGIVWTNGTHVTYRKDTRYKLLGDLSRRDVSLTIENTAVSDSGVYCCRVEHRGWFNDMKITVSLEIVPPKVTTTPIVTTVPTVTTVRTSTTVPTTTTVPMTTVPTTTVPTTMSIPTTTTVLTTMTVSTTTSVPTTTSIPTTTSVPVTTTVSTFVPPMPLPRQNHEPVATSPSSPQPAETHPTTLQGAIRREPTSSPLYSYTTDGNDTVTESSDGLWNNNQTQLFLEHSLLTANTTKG
Experiment: Luminex suspension array, antigen coupled to beads

Does B1 bind?
Result: no binding (tested: 10000 ng/ml to 0.1 ng/ml)

Does B2 bind?
Result: no binding (tested: 10000 ng/ml to 0.1 ng/ml)

Does B3 bind?
Result: no binding (tested: 10000 ng/ml to 0.1 ng/ml)

Target: T3, recombinant human TIM-4 His (R&D, Cat#2929-TM) (human, UniProt Q96H15 25-315)
T3 construct: also called rhTIM-4 His
T3 sequence (looked up): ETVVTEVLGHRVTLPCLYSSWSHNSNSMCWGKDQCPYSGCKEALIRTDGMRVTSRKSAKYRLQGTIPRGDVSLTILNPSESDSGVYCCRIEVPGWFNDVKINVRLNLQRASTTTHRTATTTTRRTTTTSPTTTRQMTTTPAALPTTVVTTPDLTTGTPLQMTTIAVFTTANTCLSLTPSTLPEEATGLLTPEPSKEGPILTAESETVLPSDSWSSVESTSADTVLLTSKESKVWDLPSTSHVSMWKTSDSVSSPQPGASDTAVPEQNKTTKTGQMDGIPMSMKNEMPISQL
Experiment: Luminex suspension array, antigen coupled to beads

Does B1 bind?
Result: no binding (tested: 10000 ng/ml to 0.1 ng/ml)

Does B2 bind?
Result: no binding (tested: 10000 ng/ml to 0.1 ng/ml)

Does B3 bind?
Result: no binding (tested: 10000 ng/ml to 0.1 ng/ml)

Target: T4, recombinant human OX40 His (Sino Biological, #10481-H08H) (human, UniProt P43489 29-216)
T4 construct: also called rhOX40 His
T4 sequence (looked up): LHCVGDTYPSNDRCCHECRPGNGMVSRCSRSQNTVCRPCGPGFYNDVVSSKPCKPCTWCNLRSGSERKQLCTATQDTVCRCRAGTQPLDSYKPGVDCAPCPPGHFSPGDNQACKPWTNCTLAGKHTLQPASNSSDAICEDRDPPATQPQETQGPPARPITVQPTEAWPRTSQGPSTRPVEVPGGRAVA
Experiment: Luminex suspension array, antigen coupled to beads

Does B1 bind?
Result: no binding (tested: 10000 ng/ml to 0.1 ng/ml)

Does B2 bind?
Result: no binding (tested: 10000 ng/ml to 0.1 ng/ml)

Does B3 bind?
Result: no binding (tested: 10000 ng/ml to 0.1 ng/ml)

Target: T5, recombinant human GITR Fc (R&D Systems, #689-GR) (human, UniProt Q9Y5U5 26-161)
T5 construct: also called rhGITR Fc; not shown: Fc part
T5 sequence (looked up): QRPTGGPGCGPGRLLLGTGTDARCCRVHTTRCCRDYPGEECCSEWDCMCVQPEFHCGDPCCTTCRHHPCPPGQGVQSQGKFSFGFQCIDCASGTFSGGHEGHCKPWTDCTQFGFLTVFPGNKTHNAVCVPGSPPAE
Experiment: Luminex suspension array, antigen coupled to beads

Does B1 bind?
Result: no binding (tested: 10000 ng/ml to 0.1 ng/ml)

Does B2 bind?
Result: no binding (tested: 10000 ng/ml to 0.1 ng/ml)

Does B3 bind?
Result: no binding (tested: 10000 ng/ml to 0.1 ng/ml)

Target: T6, recombinant human DR3 Fc (R&D Systems, #943-D3) (human, UniProt Q93038 25-201)
T6 construct: also called rhDR3 Fc; not shown: Fc part
T6 sequence (looked up): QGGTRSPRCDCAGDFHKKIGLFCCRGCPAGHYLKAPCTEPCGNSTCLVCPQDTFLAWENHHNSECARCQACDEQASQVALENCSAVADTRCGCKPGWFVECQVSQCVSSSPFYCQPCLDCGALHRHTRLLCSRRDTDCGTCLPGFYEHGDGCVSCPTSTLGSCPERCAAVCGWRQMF
Experiment: Luminex suspension array, antigen coupled to beads

Does B1 bind?
Result: no binding (tested: 10000 ng/ml to 0.1 ng/ml)

Does B2 bind?
Result: no binding (tested: 10000 ng/ml to 0.1 ng/ml)

Does B3 bind?
Result: no binding (tested: 10000 ng/ml to 0.1 ng/ml)

Target: T7, recombinant human CD137 Fc (in house produced material) (human, UniProt Q07011 24-186)
T7 construct: also called rhCD137 Fc; not shown: Fc part
Experiment: Luminex suspension array, antigen coupled to beads

Does B1 bind?
Result: no binding (tested: 10000 ng/ml to 0.1 ng/ml)

Does B2 bind?
Result: no binding (tested: 10000 ng/ml to 0.1 ng/ml)

Does B3 bind?
Result: no binding (tested: 10000 ng/ml to 0.1 ng/ml)

Target: T8, human TIM-3 expressed on cells (human, UniProt Q8TDQ0 22-301)
T8 construct: also called T cell immunoglobulin and mucin domain-3; HAVCR2
T8 sequence: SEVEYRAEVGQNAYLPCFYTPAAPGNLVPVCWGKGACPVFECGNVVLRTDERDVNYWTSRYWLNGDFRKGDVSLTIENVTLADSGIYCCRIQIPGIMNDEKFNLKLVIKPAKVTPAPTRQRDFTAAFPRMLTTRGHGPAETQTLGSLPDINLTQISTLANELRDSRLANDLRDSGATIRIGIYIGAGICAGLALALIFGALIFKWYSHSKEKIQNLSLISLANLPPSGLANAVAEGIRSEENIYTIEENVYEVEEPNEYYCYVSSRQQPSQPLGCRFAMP
Experiment: flow cytometry, 1624-5 cells expressing human TIM-3

Does B4 bind?
Result: binds

Does B5 bind?
Result: binds

Does B6 bind?
Result: binds

Does B7 bind?
Result: binds

Does B8 bind?
Result: binds

Does B9 bind?
Result: binds

Does B10 bind?
Result: binds

Does B11 bind?
Result: binds

Does B12 bind?
Result: binds

Does B13 bind?
Result: binds

Does B14 bind?
Result: binds

Does B15 bind?
Result: binds

Does B16 bind?
Result: binds

Does B17 bind?
Result: binds

Does B18 bind?
Result: binds

Does B19 bind?
Result: binds

Does B20 bind?
Result: binds

Target: T8, human TIM-3 expressed on cells
Experiment: flow cytometry, Jurkat cells ectopically expressing human TIM-3

Does B1 bind?
Result: binds

Does B2 bind?
Result: binds

Does B21 bind?
Result: binds

Target: T8, human TIM-3 expressed on cells
Experiment: flow cytometry, anti-CD3/anti-CD28 activated primary human CD8+ T cells

Does B22 bind?
Result: binds

Does B23 bind?
Result: binds

Does B24 bind?
Result: binds

Does B25 bind?
Result: binds

Does B26 bind?
Result: binds

Does B27 bind?
Result: binds

Target: T8, human TIM-3 expressed on cells
Experiment: flow cytometry, Jurkat cells ectopically expressing human TIM-3; pab2188w is the weaker comparator

Does B3 bind?
Result: binds
